Reference: article PMC6996649, “Rational Engineered C-Acyltransferase Transforms Sterically Demanding Acyl Donors” (ACS Catalysis, 2019)

Substrate: CC(=O)c1c(O)cc(O)cc1O
Test: purified protein
Assay type: biochemical, Pseudomonas protegens
Settings: disproportionation to DAPG, 100 mM potassium phosphate pH 7.5, 35 °C

B1: PpATaseCH (Pseudomonas protegens Pf-5) (protein)
chain: MCARRVAIVSAAYTPKPGSSRVRQTFKEMIVESAYKALKDAKMHPREIQAVAYGYHGEGISEYGGLGPTISDALGISPAPTFMSTANCTSSSVSFQMGHQMVASGEYDIVLCGGFEKMTDHFNYAEYIGSSTECEYDYFLGISHTDAFALATAEYFQKFGYAGREADVLATFGRQMRIYAQNTPTATRYGQPIPSLEVLKNSEACGSMLAWGEASGCAILVAEHLAHKYTDKPVFVRGCAYTGVSHYFGTRFHNPTLHHPGLPKDVGMAVSANSIACAEIAYKKAGITAKDIDVAQVYDLLGAGLIQMESMGICGKGQAGDFVLEGGIALDGQLPLNTDGGNIGRGHASGCDGILHITELFRQLRGESDNQVKGARIGVSQNLGGYAAHNSVIVLSND
notes: PhlABC multi-subunit acyltransferase from codon-harmonized construct, recombinant in E. coli, purified enzyme; with 2,4-diacetylphloroglucinol biosynthesis acyltransferase subunit PhlA; 2,4-diacetylphloroglucinol biosynthesis acyltransferase subunit PhlB
For B1, the Km was 290 ± 40 µM, the Vmax was 4830 µM/min and the kcat was 72 ± 8 s⁻¹. The kcat/Km was 251000 ± 15000 M⁻¹ s⁻¹.
